According to patent US20260097098A1:

Target: human VEGF165 (non-biotinylated) (human) (UniProt P15692)
Assay: cell-based or functional assay

human VEGF165 (non-biotinylated) (human), sequence (P15692 other isoform, or with tags, fused parts or gaps): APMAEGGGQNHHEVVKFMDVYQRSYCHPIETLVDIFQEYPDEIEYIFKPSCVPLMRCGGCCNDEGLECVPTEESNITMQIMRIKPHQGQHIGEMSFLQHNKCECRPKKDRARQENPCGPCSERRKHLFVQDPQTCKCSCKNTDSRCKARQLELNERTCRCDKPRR

maximal inhibition of VEGF-stimulated proliferation: < 80%
Substance: EYLEA (aflibercept) (Fc fusion)
